The values that follow come from patent US20160175384A1.

In assay [1] the target is human melanocortin 1 receptor (human) (UniProt Q01726). The assay is described as follows: time-resolved lanthanide fluorescence competitive binding; reference 1-targeted UXL micelles.
Assay [2] has the same target. Briefly: time-resolved lanthanide fluorescence competitive binding vs Eu-labeled NDP-alpha-MSH; 10% ligand loading.
The target is the same in assay [3]. The assay is described as follows: competitive binding vs Eu-NDP-alpha-MSH, time-resolved fluorescence, HCT116/hMC1R cells; concentration normalized to the targeting group.

Square brackets hold non-standard residues; d marks the D form. * marks the point of attachment. Butanoyl(4-Ph) = O=C(CCCc1ccccc1)*; Butanoyl(4-ethynyl) = C#CCCCC(=O)*

Chain of human melanocortin 1 receptor (human) (Q01726 whole entry): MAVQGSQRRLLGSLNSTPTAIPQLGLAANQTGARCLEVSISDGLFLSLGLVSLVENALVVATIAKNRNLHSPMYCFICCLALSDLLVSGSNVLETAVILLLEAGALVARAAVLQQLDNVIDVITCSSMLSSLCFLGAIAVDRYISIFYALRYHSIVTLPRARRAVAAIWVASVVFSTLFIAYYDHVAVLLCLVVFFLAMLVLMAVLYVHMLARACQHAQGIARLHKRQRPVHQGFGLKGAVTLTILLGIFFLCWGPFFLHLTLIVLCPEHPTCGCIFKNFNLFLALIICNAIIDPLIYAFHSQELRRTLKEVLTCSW

The molecule {Butanoyl(4-Ph)}-H[dF]RWGK(Butanoyl(4-ethynyl))-NH2 (peptide, part only; not given: crosslinked triblock polymer, part only, also: Fe(III)-crosslinked micelle) yielded a fold lower Ki than the corresponding UXL micelles in assay [1] of 4 times. This molecule had an inhibition constant Ki in assay [2] of 2.9 nM.

B1: 4-targeted triblock polymer micelles (peptide, part only; not given: triblock polymer, part only)
peptide: {Butanoyl(4-Ph)}-H[dF]RWGK(Butanoyl(4-ethynyl))-NH2
modifications: not fully specified; printed as 4-phenylbutyryl-His-DPhe-Arg-Trp-Gly-Lys(hex-5-ynoyl)-NH2; also: Lys hex-5-ynoyl clicked via 1,2,3-triazole to PEG azide of triblock polymer micelle
For B1, the inhibition constant Ki in assay [3] came to 11.5 nM.

In assay [2], {Butanoyl(4-Ph)}-H[dF]RWGK(Butanoyl(4-ethynyl))-NH2 (peptide, part only; not given: uncrosslinked triblock polymer, part only, also: uncrosslinked micelle) showed a Ki of 12 nM.
